Assay results taken from article PMC6441019, “Prospective discovery of small molecule enhancers of an E3 ligase-substrate interaction” (Nature Communications, 2019).
Blank lines part the entries; values can stand above or below the molecule they belong to. Where a SMILES comes first, the peptide text is derived from it. Where no end group is shown, it is not given here. [ ]: non-standard residue; d: D form. The star is where a group is joined. pS = N[C@@H](COP(=O)(O)O)C(=O)O; Cbz = O=C(OCc1ccccc1)*

Assays:
[1] = biological target: T1, S33E/S37A mutant β-catenin (Homo sapiens, UniProt P35222+Q9Y297, S33E/S37A); assay: β-catenin degradation in HEK293T cells stably expressing S33E/S37A β-catenin; assay type: cell-based; conditions: for effect of co-treatment on enhancer-induced degradation of S33E/S37A β-catenin: 5 μM MLN4924 or 10 μM MG132, added 30 min before NRX-252114
T1 construct: Full-length β-catenin (Myc/FLAG-tagged; Origene); expressed in transfected cells
Description: HEK293T cells were plated in a 10 cm dish in regular growth media (DMEM + 10% FBS) and allowed to adhere to the plate overnight. The following day, cells were transfected with S33E/S37 β-catenin using FuGeneHD transfection reagent. Transfected cells were then selected with media containing 700 μg/ml Geneticin. A pooled population of selected cells were used for all described experiments.
HEK293T cells expressing S33E/S37A β-catenin were plated in six-well plates at a density of 9 × 10^5 cells/well. The following day, cells were incubated with compounds diluted in regular growth media to the appropriate concentration. The final concentration of DMSO for all cell treatments was kept at 0.5% or less. Cell treatments with the Nedd8 inhibitor (MLN4924) and the proteasome inhibitor (MG132) were performed at a final concentration of 5 μM and 10 μM respectively. Cycloheximide treatment was performed at a final concentration of 100 μg/ml.

[2] = biological target: T2, pSer33/Ser37 β-catenin:β-TrCP interaction (Homo sapiens, UniProt P35222+Q9Y297); assay: SPR binding enhancement assay
T2 construct: titrating BODIPY-FL-labeled β-catenin peptides (residues 17-48) against 300 pM β-TrCP; 6xHis-SMT3 (N, cleaved yes); made in house; host or cells: E. coli (co-expressed with BirA)
Description: SPR binding assays were performed on a GE Healthcare Biacore T200 using a Series B Biacore Sensor Chip SA. […] 333 nM β-TrCP/Skp1 and titrated compound were preincubated and flowed at a rate of 30 μl/min in 10 mM HEPES, 150 mM NaCl, 0.05% Surfactant P20, 1 mM TCEP, and 2% DMSO at pH 7.4 and 20 °C. Engagement of the ternary complex was assessed with a contact and dissociation time of 120 s. […] Errors are standard error of the fit.

[3] = biological target: T3, pSer33/Ser37 β-catenin peptide binding to β-TrCP (Homo sapiens, UniProt P35222+Q9Y297); assay: TR-FRET peptide binding and cooperativity assay, pSer33/Ser37 peptide; conditions: 500 μM NRX-1532; 300 pM β-TrCP; read-out: KD pS33/S37
T3 construct: titrating BODIPY-FL-labeled β-catenin peptides (residues 17-48) against 300 pM β-TrCP; 6xHis-SMT3 (N, cleaved yes); made in house; host or cells: E. coli (co-expressed with BirA)
Description: (§1) Compounds were incubated in a 20 μl reaction volume with 300 pM biotinylated β-TrCP/Skp1 preincubated with 1.2 nM terbium-coupled streptavidin (Cisbio) and BODIPY-FL labeled β-catenin peptides (see figure legends for peptide details) in a white 384-well microplate (Perkin Elmer ProxiPlate), using a PBS buffer containing 0.01% Triton X-100 and 2 mM DTT with 2% final DMSO. […] Following 1-h incubation, plates were read for TR-FRET signal after excitation at 320 nm and read at 520 and 620 nm using an EnVision plate reader (Perkin Elmer). TR-FRET signal was calculated using a 520/620 nm ratio. Binding and enhancement data were fit to a standard Hill equation (Y = Bmin + (Bmax − Bmin)(X^h)/(X^h + EC50^h)) in Prism (GraphPad). Errors are standard error of the fit.

[4] = pKa determination (fast UV); assay type: physicochemical; conditions: methanol:water co-solvent
Description: The pKa values were determined using the fast UV (spectrometric) technique. Samples were titrated in triplicate under methanol:water co-solvent conditions (with MeOH:water mixing ratios varied from 1:1 to 1:4) in the pH range 2.0–12.0 at concentrations of 15 to 30 μM and at a temperature of 25 °C. Aqueous pKa values were determined by Yasuda-Shedlovsky extrapolation from the individual determined results.

[5] = Solubility (qualitative remark); assay type: physicochemical
[6] = biological target: T4, pSer33/S37A β-catenin peptide binding to β-TrCP (Homo sapiens, UniProt P35222+Q9Y297, S37A); assay: TR-FRET binding enhancement assay, pSer33/S37A peptide
T4 construct: titrating BODIPY-FL-labeled β-catenin peptides (residues 17-48) against 300 pM β-TrCP; 6xHis-SMT3 (N, cleaved yes); made in house; host or cells: E. coli (co-expressed with BirA)
Description: as §1

[7] = biological target: T5, S33E/S37A β-catenin peptide binding to β-TrCP (Homo sapiens, UniProt P35222+Q9Y297, S33E/S37A); assay: TR-FRET binding enhancement assay, S33E/S37A peptide; conditions: 1% binding saturation
T5 construct: titrating BODIPY-FL-labeled β-catenin peptides (residues 17-48) against 300 pM β-TrCP; 6xHis-SMT3 (N, cleaved yes); made in house; host or cells: E. coli (co-expressed with BirA)
Description: as §1

[8] = biological target: T6, endogenous S37A mutant β-catenin (Homo sapiens, UniProt P35222+Q9Y297, S37A); assay: Degradation of endogenous S37A β-catenin in TOV-112D cells; assay type: cell-based
T6 construct: host or cells: TOV-112D

[9] = biological target: biotinylated β-TrCP1-avi tag/Skp1 complex (UniProt Q9Y297); assay: FRET or BRET; TR-FRET, no compound: BODIPY-FL β-catenin peptide titrated against 300 pM biotinylated β-TrCP/Skp1 on 1.2 nM terbium-streptavidin; PBS, 0.01% Triton X-100, 2 mM DTT, 2% DMSO; 1 h
[10] = biological target: Myc/FLAG-tagged S33E/S37A phosphomimetic full-length β-catenin (UniProt P35222)
[11] = biological target: β-TrCP1 (recombinant β-TrCP/Skp1 complex) (UniProt Q9Y297); assay: fluorescence polarisation titration; conditions: sites S33
[12] = biological target: β-TrCP1 (recombinant β-TrCP/Skp1 complex) (UniProt Q9Y297); assay: TR-FRET peptide titration, no compound; conditions: reference: Ser33/S37A peptide; sites S33
[13] = biological target: β-TrCP1 (recombinant β-TrCP/Skp1 complex) (UniProt Q9Y297); assay: peptide binding assay, type not said; conditions: reference: pSer33/pSer37 peptide; sites S37
[14] = biological target: T7, β-TrCP (Homo sapiens, UniProt Q9Y297); assay: TR-FRET
T7 chain: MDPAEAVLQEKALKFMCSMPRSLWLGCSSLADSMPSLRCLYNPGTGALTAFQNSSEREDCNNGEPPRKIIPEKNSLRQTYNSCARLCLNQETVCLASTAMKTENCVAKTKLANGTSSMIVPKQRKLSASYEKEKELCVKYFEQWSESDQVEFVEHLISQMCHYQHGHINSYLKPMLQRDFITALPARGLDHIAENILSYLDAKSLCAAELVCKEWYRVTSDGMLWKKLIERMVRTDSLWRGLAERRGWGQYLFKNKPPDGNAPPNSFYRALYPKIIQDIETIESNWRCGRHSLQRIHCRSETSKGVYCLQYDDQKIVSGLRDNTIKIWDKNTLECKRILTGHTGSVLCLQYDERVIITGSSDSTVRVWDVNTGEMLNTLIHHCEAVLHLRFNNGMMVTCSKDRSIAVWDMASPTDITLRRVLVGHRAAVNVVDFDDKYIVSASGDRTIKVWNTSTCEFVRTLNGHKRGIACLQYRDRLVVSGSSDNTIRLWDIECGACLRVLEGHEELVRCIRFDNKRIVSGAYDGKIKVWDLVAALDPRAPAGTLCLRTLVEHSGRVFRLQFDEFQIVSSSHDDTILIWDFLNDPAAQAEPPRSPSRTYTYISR

[15] = biological target: T8, biotinylated β-TrCP/Skp1 complex (6xHis-SMT3-β-TrCP1-avi tag/Skp1, for TR-FRET) (UniProt Q9Y297-2 1-569; P63208 1-163, biotin on the avi tag (co-expressed with BirA)); assay: AlphaScreen or HTRF; TR-FRET: BODIPY-FL-labeled β-catenin peptides titrated against 300 pM biotinylated β-TrCP/Skp1 on 1.2 nM terbium-coupled streptavidin; PBS, 0.01% Triton X-100, 2 mM DTT, 2% DMSO; 1 h; one-site binding model; no compound; conditions: both partners purified
T8 construct: β-TrCP1; Skp1; Held on terbium-coupled streptavidin in the TR-FRET assay; also called β-TrCP complex; source: E. coli, co-expressed from pCDF-Duet1 with BirA and d-biotin, purified (Ni-NTA, ULP1 cleavage, HiTrap SP, SEC); not shown: His6, N-terminal, cleaved; SMT3, N-terminal, cleaved; avi tag, C-terminal, kept
T8 sequence (P63208 whole entry, one chain of several): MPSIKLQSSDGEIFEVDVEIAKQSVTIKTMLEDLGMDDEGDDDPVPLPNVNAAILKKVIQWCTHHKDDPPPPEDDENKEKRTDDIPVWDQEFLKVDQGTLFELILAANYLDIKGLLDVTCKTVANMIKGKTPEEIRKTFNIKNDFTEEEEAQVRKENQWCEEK

T1 sequence (P35222 whole entry S33E/S37A, one chain of several): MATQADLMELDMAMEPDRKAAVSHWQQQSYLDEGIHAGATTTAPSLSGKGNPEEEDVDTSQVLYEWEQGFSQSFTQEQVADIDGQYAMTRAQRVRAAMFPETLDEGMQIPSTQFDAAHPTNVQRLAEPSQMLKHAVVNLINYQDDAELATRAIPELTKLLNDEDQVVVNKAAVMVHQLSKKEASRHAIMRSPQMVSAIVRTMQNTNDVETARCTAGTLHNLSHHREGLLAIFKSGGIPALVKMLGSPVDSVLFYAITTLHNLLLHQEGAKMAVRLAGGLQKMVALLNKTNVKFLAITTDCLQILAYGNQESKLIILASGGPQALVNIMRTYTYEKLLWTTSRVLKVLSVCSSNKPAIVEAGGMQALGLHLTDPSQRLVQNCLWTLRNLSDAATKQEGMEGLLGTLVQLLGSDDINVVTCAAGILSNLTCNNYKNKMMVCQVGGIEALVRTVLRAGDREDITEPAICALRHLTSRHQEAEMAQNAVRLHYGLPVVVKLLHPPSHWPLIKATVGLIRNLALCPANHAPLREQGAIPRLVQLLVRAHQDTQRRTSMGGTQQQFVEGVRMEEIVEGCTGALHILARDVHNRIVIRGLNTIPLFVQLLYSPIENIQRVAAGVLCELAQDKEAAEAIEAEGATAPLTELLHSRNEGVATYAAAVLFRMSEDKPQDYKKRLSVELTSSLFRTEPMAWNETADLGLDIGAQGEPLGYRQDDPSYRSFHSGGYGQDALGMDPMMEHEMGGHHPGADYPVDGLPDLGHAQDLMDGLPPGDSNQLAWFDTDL
T1 sequence (P63208 whole entry partner, one chain of several): as the sequence (P63208 whole entry, one chain of several) above
T1 sequence (Q13616 whole entry partner, one chain of several): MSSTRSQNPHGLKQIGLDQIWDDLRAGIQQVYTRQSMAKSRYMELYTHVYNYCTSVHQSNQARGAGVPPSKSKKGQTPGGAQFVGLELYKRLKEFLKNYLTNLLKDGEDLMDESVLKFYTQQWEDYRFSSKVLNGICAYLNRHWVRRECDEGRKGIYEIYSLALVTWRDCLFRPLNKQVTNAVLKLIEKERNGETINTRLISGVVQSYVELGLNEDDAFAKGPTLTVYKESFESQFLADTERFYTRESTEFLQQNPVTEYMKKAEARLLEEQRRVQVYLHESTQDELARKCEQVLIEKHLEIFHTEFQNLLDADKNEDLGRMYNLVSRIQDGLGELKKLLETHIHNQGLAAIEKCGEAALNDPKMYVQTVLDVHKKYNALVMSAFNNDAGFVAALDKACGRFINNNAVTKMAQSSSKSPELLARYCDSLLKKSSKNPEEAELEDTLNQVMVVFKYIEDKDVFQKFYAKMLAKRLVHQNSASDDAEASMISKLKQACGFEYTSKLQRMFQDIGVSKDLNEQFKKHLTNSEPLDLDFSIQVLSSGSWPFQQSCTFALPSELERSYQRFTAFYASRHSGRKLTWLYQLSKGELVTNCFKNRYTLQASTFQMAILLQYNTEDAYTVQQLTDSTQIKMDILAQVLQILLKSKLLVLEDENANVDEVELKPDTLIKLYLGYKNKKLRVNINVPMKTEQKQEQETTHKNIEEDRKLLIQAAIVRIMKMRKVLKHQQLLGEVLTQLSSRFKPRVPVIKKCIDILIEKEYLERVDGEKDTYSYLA
T1 sequence (P62877 whole entry partner, one chain of several): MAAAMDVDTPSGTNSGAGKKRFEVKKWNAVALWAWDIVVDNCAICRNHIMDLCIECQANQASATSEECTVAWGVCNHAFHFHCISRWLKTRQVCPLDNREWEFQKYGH
T1 sequence (Q15843 1-76 partner limits assumed, one chain of several): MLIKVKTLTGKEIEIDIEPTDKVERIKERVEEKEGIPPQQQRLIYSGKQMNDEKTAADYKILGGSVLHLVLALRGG
T6 sequence (P35222 whole entry S37A, one chain of several): as the sequence (P35222 whole entry S33E/S37A, one chain of several) above, with E33S counted along it
T6 sequence (P63208 whole entry partner, one chain of several): as the sequence (P63208 whole entry, one chain of several) above
T6 sequence (Q13616 whole entry partner, one chain of several): as the sequence (Q13616 whole entry partner, one chain of several) above
T6 sequence (P62877 whole entry partner, one chain of several): as the sequence (P62877 whole entry partner, one chain of several) above
T6 sequence (Q15843 1-76 partner limits assumed, one chain of several): as the sequence (Q15843 1-76 partner limits assumed, one chain of several) above
T5 sequence (Q9Y297 1-569 isoform Q9Y297-2, stated change not applied): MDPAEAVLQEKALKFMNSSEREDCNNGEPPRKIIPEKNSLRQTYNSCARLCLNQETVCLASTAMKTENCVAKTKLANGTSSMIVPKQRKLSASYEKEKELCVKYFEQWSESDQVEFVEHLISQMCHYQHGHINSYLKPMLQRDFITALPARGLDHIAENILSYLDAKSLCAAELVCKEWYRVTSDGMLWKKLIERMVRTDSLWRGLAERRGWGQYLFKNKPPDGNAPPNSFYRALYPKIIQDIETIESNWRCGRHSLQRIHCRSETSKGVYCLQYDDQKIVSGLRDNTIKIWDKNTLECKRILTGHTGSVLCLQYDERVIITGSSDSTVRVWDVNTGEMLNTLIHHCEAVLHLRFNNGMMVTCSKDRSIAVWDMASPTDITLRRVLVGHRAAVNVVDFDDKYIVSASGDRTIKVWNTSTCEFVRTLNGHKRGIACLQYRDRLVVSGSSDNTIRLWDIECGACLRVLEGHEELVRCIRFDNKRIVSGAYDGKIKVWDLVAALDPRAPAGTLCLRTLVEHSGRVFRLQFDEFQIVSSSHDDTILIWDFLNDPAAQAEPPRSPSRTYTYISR
T5 sequence (P63208 whole entry partner, the tested form may be a part): as the sequence (P63208 whole entry, one chain of several) above
T5 sequence (P35222 17-48 S33E/S37A limits assumed): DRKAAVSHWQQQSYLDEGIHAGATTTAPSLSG
T2 sequence (Q9Y297 1-569 isoform Q9Y297-2, one chain of several): as the sequence (Q9Y297 1-569 isoform Q9Y297-2, stated change not applied) above
T2 sequence (P63208 whole entry partner, one chain of several, the tested form may be a part): as the sequence (P63208 whole entry, one chain of several) above
T4 sequence (Q9Y297 1-569 isoform Q9Y297-2, stated change not applied): as the sequence (Q9Y297 1-569 isoform Q9Y297-2, stated change not applied) above
T4 sequence (P63208 whole entry partner, the tested form may be a part): as the sequence (P63208 whole entry, one chain of several) above
T4 sequence (P35222 17-48 S37A limits assumed): as the sequence (P35222 17-48 S33E/S37A limits assumed) above, with E17S counted along it
T3 sequence (Q9Y297 1-569 isoform Q9Y297-2, one chain of several): as the sequence (Q9Y297 1-569 isoform Q9Y297-2, stated change not applied) above
T3 sequence (P63208 whole entry partner, one chain of several, the tested form may be a part): as the sequence (P63208 whole entry, one chain of several) above

Molecule: CC(C)C[C@@H](C=O)NC(=O)[C@H](CC(C)C)NC(=O)[C@H](CC(C)C)NC(=O)OCc1ccccc1 [MG132, reference compound] (Cbz-Leu-Leu-Leu-aldehyde)
- effect of co-treatment on enhancer-induced degradation of S33E/S37A β-catenin [1]: completely blocked

Molecule: NS(=O)(=O)OC[C@@H]1C[C@@H](n2ccc3c(N[C@H]4CCc5ccccc54)ncnc32)C[C@@H]1O [MLN4924, reference compound]
- effect of co-treatment on enhancer-induced degradation of S33E/S37A β-catenin [1]: completely blocked

Molecule: O=C(Nc1cccc(-c2ccn[nH]2)c1)c1ccc(C(F)(F)F)[nH]c1=O [NRX-1532]
- EC50 [2]: 129000 ± 33000 nM
- Kd [3]: 68 nM
- pKa [4]: 5.6

Molecule: BODIPY-FL-labeled S33E/S37A phosphomimetic β-catenin peptide (residues 17-48) (from UniProt P35222 17-48)
- Kd [9]: > 5000 nM
- fold decrease in binding affinity relative to the pSer33/S37A peptide [9]: > 10 fold

B2: BODIPY-FL-labeled pSer33/S37C β-catenin peptide (residues 17-48) (peptide)
peptide: Ac-CDRKAAVSHWQQQSYLD[pS]GIHCGATTTAPSLSG
modifications: cysteine pairing not given here; also: BODIPY-FL label, site not given here
notes: added N-terminal cysteine of the peptide list, not part of β-catenin 17-48; as the printed 17-48 peptide with this change; also called pSer33/Cys37; pS33/S37C
- Kd [15]: 154 nM

B3: BODIPY-FL-labeled pSer33/S37F β-catenin peptide (residues 17-48) (peptide)
peptide: Ac-CDRKAAVSHWQQQSYLD[pS]GIHFGATTTAPSLSG
modifications: also: BODIPY-FL label, site not given here
notes: added N-terminal cysteine of the peptide list, not part of β-catenin 17-48; as the printed 17-48 peptide with this change; also called pSer33/Phe37; pS33/S37F
- Kd [15]: 23 nM

The next lines start with the values.

- solubility relative to NRX-1532 [5]: more soluble
Molecule: O=C(Nc1cccc(-c2nnn[nH]2)c1)c1ccc(C(F)(F)F)[nH]c1=O [NRX-1933]

- EC50 [6]: 163 ± 6 nM
- EC50 [7]: 6700 ± 700 nM
Molecule: CN(C)C(=O)c1cccc(NC(=O)c2c(Sc3c(Cl)cccc3Cl)cc(C(F)(F)F)[nH]c2=O)c1 [NRX-103095]

- concentration at which degradation of S33E/S37A mutant β-catenin starts ([1]; HEK293T stable line, 6 h, western): ~ 35 μM
- degradation of endogenous S37A mutant β-catenin [8]: did not induce degradation
Molecule: COc1cc2c(cc1OC)CN(C(=O)c1c(Sc3c(Cl)cccc3Cl)cc(C(F)(F)F)[nH]c1=O)C2 [NRX-252262]

- degradation of stably expressed Myc/FLAG S33E/S37A β-catenin in HEK293T cells, NRX-252114 for 6 h, western blot [10]: 50 µM
- degradation of stably expressed Myc/FLAG S33E/S37A β-catenin in HEK293T cells, NRX-252262 for 6 h, western blot [10]: 35 µM
Molecule: endogenous β-TrCP of HEK293T cells (from UniProt Q9Y297 1-605) (natural protein)

- KD ([11]; reference: pSer33/pSer37 peptide): weaker; reference 2 nM
Molecule: β-catenin 17-48 (from UniProt P35222) Ser33/pSer37 peptide

- binding against the reference [12]: stronger
Molecule: β-catenin 17-48 (from UniProt P35222) pSer33/S37A peptide

- binding against the reference ([11]; reference: non-phosphorylated peptide (Ser33/Ser37)): stronger
Molecule: β-catenin 17-48 (from UniProt P35222) pSer33/Ser37 peptide

- binding against the reference [13]: weaker
Molecule: β-catenin (from UniProt P35222) pSer33/S37A peptide

- Kd [14]: 180 nM
B1: β-catenin peptide (protein)
chain: ATQADLMELDMAMEPDRKAAVSHWQQQSYLDSGIHSGATTTAPSLSGKGNPEEEDVDTSQVLYEWEQGFSQSFTQEQVADIDGQYAMTRAQRVRAAMFPETLDEGMQIPSTQFDAAHPTNVQRLAEPSQMLKHAVVNLINYQDDAELATRAIPELTKLLNDEDQVVVNKAAVMVHQLSKKEASRHAIMRSPQMVSAIVRTMQNTNDVETARCTAGTLHNLSHHREGLLAIFKSGGIPALVKMLGSPVDSVLFYAITTLHNLLLHQEGAKMAVRLAGGLQKMVALLNKTNVKFLAITTDCLQILAYGNQESKLIILASGGPQALVNIMRTYTYEKLLWTTSRVLKVLSVCSSNKPAIVEAGGMQALGLHLTDPSQRLVQNCLWTLRNLSDAATKQEGMEGLLGTLVQLLGSDDINVVTCAAGILSNLTCNNYKNKMMVCQVGGIEALVRTVLRAGDREDITEPAICALRHLTSRHQEAEMAQNAVRLHYGLPVVVKLLHPPSHWPLIKATVGLIRNLALCPANHAPLREQGAIPRLVQLLVRAHQDTQRRTSMGGTQQQFVEGVRMEEIVEGCTGALHILARDVHNRIVIRGLNTIPLFVQLLYSPIENIQRVAAGVLCELAQDKEAAEAIEAEGATAPLTELLHSRNEGVATYAAAVLFRMSEDKPQDYKKRLSVELTSSLFRTEPMAWNETADLGLDIGAQGEPLGYRQDDPSYRSFHSGGYGQDALGMDPMMEHEMGGHHPGADYPVDGLPDLGHAQDLMDGLPPGDSNQLAWFDTDL
modifications: 20 µM NRX-252114
